Source: PMC6748613
Each block holds one substance with its values, some of them ahead of it.

Columns and labels:
Experiment in all cases: AUC
[1] = target: bH1 Fab variant W^H33-D^H98-G^H99-S^L30b
[2] = target: bH1 Fab variant W^H33-M^H98-D^H99-R^L30b
[3] = target: bH1 Fab variant W^H33-W^H98-D^H99-R^L30b
[4] = target: bH1 Fab variant W^H33-W^H98-G^H99-S^L30b
[5] = target: bH1 Fab variant Y^H33-D^H98-G^H99-R^L30b
[6] = target: bH1 Fab variant Y^H33-F^H98-G^H99-S^L30b
[7] = target: bH1 Fab variant Y^H33-M^H98-G^H99-S^L30b
[8] = target: bH1 Fab variant Y^H33-M^H98-M^H99-S^L30b
[9] = target: bH1 Fab variant Y^H33-W^H98-G^H99-S^L30b

Substance: bH1 Fab variant W^H33-D^H98-G^H99-S^L30b
Kd [1]: 1470 mM | dimer % at 1 mg/mL [1]: 1.2%

Substance: bH1 Fab variant W^H33-M^H98-D^H99-R^L30b
Kd [2]: 3.98 mM

Substance: bH1 Fab variant W^H33-W^H98-D^H99-R^L30b
Kd [3]: 1.33 mM | dimer % at 1 mg/mL [3]: 1.2%

Substance: bH1 Fab variant Y^H33-M^H98-G^H99-S^L30b
Kd [7]: 179 mM | dimer % at 1 mg/mL [7]: 1.4%

Substance: bH1 Fab variant Y^H33-M^H98-M^H99-S^L30b
Kd [8]: 19.9 mM

Substance: bH1 Fab variant Y^H33-W^H98-G^H99-S^L30b
Kd [9]: 5.73 mM | dimer % at 1 mg/mL [9]: 2.8%

Next, values leading:

Kd [4]: 2.68 mM | dimer % at 1 mg/mL [4]: 1.4%
Substance: bH1 Fab variant W^H33-W^H98-G^H99-S^L30b

Kd [5]: 8.94 mM
Substance: bH1 Fab variant Y^H33-D^H98-G^H99-R^L30b

Kd [6]: 1.29 mM | dimer % at 1 mg/mL [6]: 1%
Substance: bH1 Fab variant Y^H33-F^H98-G^H99-S^L30b
